Experimental data: article PMC3776475

Key:
[1] = molecular target: JR-FL SOSIP.R6-IZ-D7324 gp140 expressed in 293S GnTI^-/- cells (HIV-1 isolate JR-FL (subtype B)); test: SEC
[2] = molecular target: JR-FL SOSIP.R6-IZ-D7324 gp140 expressed in 293S GnTI^-/- cells (HIV-1 isolate JR-FL (subtype B)); test: native gel or EMSA
[3] = molecular target: KNH1144 SOSIP.R6 MPER gp140 expressed in 293T cells with furin, without kifunensine (HIV-1 isolate KNH1144 (subtype A)); test: native gel or EMSA
[4] = molecular target: JR-FL SOSIP.R6-IZ-D7324 gp140 expressed in 293T cells (HIV-1 isolate JR-FL (subtype B)); test: native gel or EMSA
[5] = molecular target: KNH1144 SOSIP.R6 MPER gp140 expressed in 293S GnTI^-/- cells with furin (HIV-1 isolate KNH1144 (subtype A)); test: SEC
[6] = molecular target: KNH1144 SOSIP.R6 MPER gp140 expressed in 293T cells with furin and kifunensine (HIV-1 isolate KNH1144 (subtype A)); test: native gel or EMSA

Substance: JR-FL SOSIP.R6-IZ-D7324 gp140 expressed in 293S GnTI^-/- cells
- stoichiometry N [1]: 3
- stoichiometry N [2]: 3

Substance: KNH1144 SOSIP.R6 MPER gp140 expressed in 293T cells with furin, without kifunensine (complex)
- stoichiometry N [3]: 3

Substance: JR-FL SOSIP.R6-IZ-D7324 gp140 expressed in 293T cells
- stoichiometry N [4]: 3

Substance: KNH1144 SOSIP.R6 MPER gp140 expressed in 293S GnTI^-/- cells with furin (complex)
- stoichiometry N [5]: 3

Substance: KNH1144 SOSIP.R6 MPER gp140 expressed in 293T cells with furin and kifunensine (complex)
- stoichiometry N [6]: 3
